Experimental data published in the supplement of paper PMC7125110.
± gives the standard error. For part of these data: Variants at the floor of the assay were thinned out.

B1: glmS ribozyme (parent)
chain: AUAAAAGCGCCAGAACUACAGAAAUGUAGUUGACGAGGAGGAGGUUUAUCGAAUUUUCGGCGGAUGCCUCCAAA

Experiments:
Settings in all cases: with glucosamine-6-phosphate
glucosamine-6-phosphate [1] = variants of: B1; assay: kcat; higher = faster cleavage; RNA array
Method in brief: (§1)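 E. coli RNA polymerase transcribed barcoded ribozyme variants in situ on sequenced MiSeq chips, which were tracked via a hybridised Cy3 probe at 37 °C. Tiles were imaged over ~14 h after glucosamine-6-phosphate (40 μM to 10 mM) in HEPES/KCl/Mg(OAc)2 buffer was flowed in. Normalised per-tile medians were fit to one- or two-exponential decays for kobs, and kcat and KM came from weighted Michaelis–Menten fits.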

glucosamine-6-phosphate [2] = variants of: B1; assay: KM; higher = weaker cofactor use; RNA array
Method in brief: as §1

glucosamine-6-phosphate [3] = variants of: B1; assay: self-cleavage kobs at 160 uM GlcN6P; higher = faster cleavage; RNA array
Method in brief: as §1

glucosamine-6-phosphate [4] = variants of: B1; assay: self-cleavage kobs at 640 uM GlcN6P; higher = faster cleavage; RNA array
Method in brief: as §1

glucosamine-6-phosphate [5] = variants of: B1; assay: self-cleavage kobs at 2500 uM GlcN6P; higher = faster cleavage; RNA array
Method in brief: as §1

glucosamine-6-phosphate [6] = variants of: B1; assay: self-cleavage kobs at 10000 uM GlcN6P; higher = faster cleavage; RNA array
Method in brief: as §1

glucosamine-6-phosphate [7] = variants of: B1; assay: self-cleavage kobs at 40 uM GlcN6P; higher = faster cleavage; RNA array
Method in brief: as §1

| Variant | kcat (glucosamine-6-phosphate [1]) [s⁻¹] | KM (glucosamine-6-phosphate [2]) [µM] | self-cleavage kobs at 160 uM GlcN6P (glucosamine-6-phosphate [3]) [s⁻¹] | self-cleavage kobs at 640 uM GlcN6P (glucosamine-6-phosphate [4]) [s⁻¹] | self-cleavage kobs at 2500 uM GlcN6P (glucosamine-6-phosphate [5]) [s⁻¹] | self-cleavage kobs at 10000 uM GlcN6P (glucosamine-6-phosphate [6]) [s⁻¹] | self-cleavage kobs at 40 uM GlcN6P (glucosamine-6-phosphate [7]) [s⁻¹] |
| --- | --- | --- | --- | --- | --- | --- | --- |
| G40C A53C | 0.000789 ± 2e-05 | 2240 ± 110 | 5.46e-05 ± 1.9e-05 | 0.000176 ± 2.5e-05 | 0.0004 ± 6.6e-05 | 0.000652 ± 7.2e-05 |  |
| G38A C71U | < 1e-05 |  |  |  |  |  |  |
| A39U U57G | 2.55e-05 ± 5.3e-06 |  |  |  | 3.12e-05 ± 1.3e-05 | 2.2e-05 ± 9.3e-06 |  |
| G40C C70A | 0.000174 ± 1.6e-05 | 516 ± 140 |  | 0.000105 ± 1.9e-05 | 0.00016 ± 3.8e-05 | 0.000154 ± 2.9e-05 |  |
| G38A C61A G66U U69C C70U | 4.44e-05 ± 6.1e-06 |  |  |  |  |  |  |
| A39U C50G C58U | 1.28e-05 ± 4e-06 |  |  |  |  |  |  |
| G38U U54C | < 1e-05 |  | < 1e-05 | < 1e-05 |  |  | < 1e-05 |
| G38A A52C C70A | 1.15e-05 ± 3.5e-06 |  |  |  |  |  |  |
| A39U G43U | 0.000561 ± 0.00011 | 1770 ± 600 | 5.96e-05 ± 8.5e-06 | 0.000127 ± 1.3e-05 | 0.000418 ± 4.9e-05 | 0.00046 ± 4.6e-05 | 1.76e-05 ± 8.1e-06 |
| G40A G66A | 0.00833 ± 0.0037 |  | 0.000201 ± 8.8e-05 | 0.00165 ± 0.00041 |  | 0.00641 ± 0.00098 | 0.000144 ± 2e-05 |
| G40A U49G | 0.000121 ± 1.7e-06 | 1210 ± 55 |  | 4.19e-05 ± 1e-05 |  | 0.000108 ± 1.3e-05 |  |
| A39G U46A | 0.00547 ± 0.00066 | 2120 ± 360 | 0.000377 ± 0.0001 | 0.00116 ± 0.00029 | 0.00325 ± 0.00083 | 0.00435 ± 0.0014 | 0.000116 ± 3.8e-05 |
| G37C U69A | 1.84e-05 ± 4.8e-06 |  |  |  |  |  |  |
| G38U C70U | 1.27e-05 ± 2.6e-06 |  |  |  |  |  |  |
| G38C G66C C70U | 1.23e-05 ± 9.7e-07 |  |  | < 1e-05 |  |  |  |
| G38A C70A | < 1e-05 |  |  |  |  |  | < 1e-05 |
| A39U G66C C67A | 0.000462 ± 8.7e-05 | 1570 ± 490 | 4.03e-05 ± 1.3e-05 | 0.00015 ± 3.2e-05 | 0.000248 ± 6.1e-05 | 0.000455 ± 0.00013 |  |
| G38A A52U | < 1e-05 |  |  |  |  | < 1e-05 |  |
| G40U G41A | 0.000118 ± 3.1e-06 | 1380 ± 130 |  | 3.9e-05 ± 1.1e-05 | 7.51e-05 ± 9.8e-06 | 0.000104 ± 9.9e-06 |  |

| Variant | kcat (glucosamine-6-phosphate [1]) [s⁻¹] | KM (glucosamine-6-phosphate [2]) [µM] | self-cleavage kobs at 160 uM GlcN6P (glucosamine-6-phosphate [3]) [s⁻¹] | self-cleavage kobs at 640 uM GlcN6P (glucosamine-6-phosphate [4]) [s⁻¹] | self-cleavage kobs at 2500 uM GlcN6P (glucosamine-6-phosphate [5]) [s⁻¹] | self-cleavage kobs at 10000 uM GlcN6P (glucosamine-6-phosphate [6]) [s⁻¹] | self-cleavage kobs at 40 uM GlcN6P (glucosamine-6-phosphate [7]) [s⁻¹] |
| --- | --- | --- | --- | --- | --- | --- | --- |
| G38A U49A C58U | 2.37e-05 ± 3.2e-06 | 862 ± 380 |  |  |  |  |  |
| A39C G44A | 3.56e-05 ± 1.2e-05 |  |  |  | 5.47e-05 ± 1.1e-05 | 2.63e-05 ± 8.1e-06 |  |
| A39U A48C | 0.000221 ± 2.1e-05 | 836 ± 370 |  |  | 0.000181 ± 1.8e-05 | 0.000196 ± 1.6e-05 |  |
| G38C G66U | < 1e-05 |  | < 1e-05 |  |  | < 1e-05 |  |
| A39U A42C | 0.000556 ± 3.1e-05 | 3030 ± 290 | 2.58e-05 ± 7.6e-06 | 9.53e-05 ± 1.1e-05 | 0.000273 ± 3.6e-05 | 0.000419 ± 3.9e-05 |  |
| A39U A42G | 0.0208 ± 0.0077 | 1440 ± 690 | 0.00186 ± 0.00055 | 0.0052 ± 0.0011 | 0.0216 ± 0.0065 | 0.019 ± 0.006 | 0.000671 ± 0.00011 |
| A39U C68G | 0.000151 ± 1.6e-05 | 998 ± 310 |  | 5.37e-05 ± 7.8e-06 | 0.000126 ± 1.2e-05 | 0.000127 ± 1.3e-05 |  |
| A39U G41A | 0.00029 ± 1.6e-05 | 651 ± 93 | 5.88e-05 ± 1.3e-05 | 0.00014 ± 1.5e-05 | 0.00025 ± 2.7e-05 | 0.000257 ± 3e-05 |  |
| A39G U45A | 0.0357 ± 0.011 | 581 ± 220 | 0.00768 ± 0.0018 | 0.0157 ± 0.0034 | 0.061 ± 0.03 | 0.0497 ± 0.018 | 0.00238 ± 0.00029 |
| G38U G62A | < 1e-05 |  | < 1e-05 |  |  |  |  |
| A39C U55C | 0.00774 ± 0.0022 | 3010 ± 1100 | 0.000325 ± 5e-05 | 0.00144 ± 0.00027 | 0.00268 ± 0.00051 | 0.0067 ± 0.00081 | 0.000127 ± 1.4e-05 |
| G40C U56C | 6.61e-05 ± 9.2e-06 |  | < 1e-05 |  | 4.67e-05 ± 2e-05 | 5.45e-05 ± 8.6e-06 | < 1e-05 |
| G37A G59U C68G | < 1e-05 |  |  |  |  |  |  |
| G40C C70U C71G | 0.00208 ± 0.00091 |  | 0.000296 ± 8.3e-05 | 0.000624 ± 0.00016 | 0.00208 ± 0.00051 | 0.00243 ± 0.00039 | 0.000192 ± 2.7e-05 |
| G37C A39U | 1.36e-05 ± 1e-06 | 1230 ± 450 |  |  |  |  |  |
| A39U G59A | 2.27e-05 ± 2.6e-06 |  |  |  |  |  |  |
| G40U A53C | 0.00186 ± 0.00029 | 2780 ± 760 | 0.00012 ± 3.1e-05 | 0.000309 ± 4.6e-05 | 0.00086 ± 0.0001 | 0.00149 ± 0.00016 | 4.37e-05 ± 1.2e-05 |
| G40U A53G | 0.00428 ± 0.0018 |  | 0.000703 ± 0.0002 | 0.00118 ± 0.00028 | 0.00316 ± 0.00063 | 0.0062 ± 0.0017 | 0.00024 ± 5.5e-05 |
